Test results from paper PMC13279940.

Molecular target: Pseudomonas aeruginosa QatC with C-terminal 6xHis tag (Pseudomonas aeruginosa)
Test: mass photometry; Refeyn TwoMP; purified protein diluted to 200 nM in gel filtration buffer (20 mM HEPES-KOH pH 7.5, 250 mM KCl, 1 mM TCEP), 1 uL mixed into a 16 uL drop; QatA in the absence of DNA

Question: “Pseudomonas aeruginosa QatB (natural protein)” was tested. Which stoichiometry N did it give?
Answer: Its stoichiometry N is 1.
